Experimental data as given in publication PMC12694930, “An allantoin-inducible glyoxylate utilization pathway in Pseudomonas aeruginosa” (Microbiology, 2025).

Legend:
[1] = target: Hyi (PA1501), putative hydroxypyruvate isomerase from Pseudomonas aeruginosa (P. aeruginosa); test: AUC; analytical ultracentrifugation, sedimentation velocity (AUC-SV), of each purified protein alone
Gcl [2] = target: T1, Gcl (Pseudomonas aeruginosa, UniProt Q9I3L0); test: GlxR-coupled NADH oxidation with added FAD; yellow protein ([…] nm); assay type: biochemical; conditions: 100 µM FAD roughly doubled activity; 37 °C
T1 construct: full-length ORF in pET-19m, N-terminal His6 tag cut with TEV protease, expressed in E. coli Rosetta, Ni-NTA
T1 sequence (Q9I3L0 1-591): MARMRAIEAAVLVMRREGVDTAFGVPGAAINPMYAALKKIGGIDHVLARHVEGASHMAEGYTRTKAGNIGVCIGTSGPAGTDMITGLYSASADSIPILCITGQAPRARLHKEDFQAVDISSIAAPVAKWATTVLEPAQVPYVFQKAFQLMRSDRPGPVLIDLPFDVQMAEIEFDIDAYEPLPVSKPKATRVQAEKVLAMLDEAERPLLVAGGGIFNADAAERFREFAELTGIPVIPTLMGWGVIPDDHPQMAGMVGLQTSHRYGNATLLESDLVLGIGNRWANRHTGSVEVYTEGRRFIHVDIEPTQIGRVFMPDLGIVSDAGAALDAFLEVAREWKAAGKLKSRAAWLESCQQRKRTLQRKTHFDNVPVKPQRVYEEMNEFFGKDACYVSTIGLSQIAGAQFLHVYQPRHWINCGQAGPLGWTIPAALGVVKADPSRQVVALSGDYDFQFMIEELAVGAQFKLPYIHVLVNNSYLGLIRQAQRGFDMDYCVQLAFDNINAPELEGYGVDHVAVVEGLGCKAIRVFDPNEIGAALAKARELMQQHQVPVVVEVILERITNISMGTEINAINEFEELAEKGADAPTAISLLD

Gcl [3] = target: T1, Gcl; test: 1H-NMR, decrease of hydrated glyoxylate peak; assay type: biochemical; conditions: 50 mM sodium phosphate in D2O, 1 mM MgCl2, pD 7.0; 37 °C; 22 h; no Hyi
Hyi = target: T2, Hyi (Pseudomonas aeruginosa, UniProt Q9I3L1); test: 1H-NMR, disappearance of hydroxypyruvate peaks; assay type: biochemical; conditions: 50 mM sodium phosphate in D2O, 1 mM MgCl2, pD 7.0; 37 °C; likely isomerization with H/D exchange, product peak not seen
T2 construct: gene PA1501; full-length ORF in pET-19m, N-terminal His6 tag (cleavage clearly told only for Gcl), expressed in E. coli Rosetta, Ni-NTA; dimer in solution
T2 sequence (Q9I3L1 1-260): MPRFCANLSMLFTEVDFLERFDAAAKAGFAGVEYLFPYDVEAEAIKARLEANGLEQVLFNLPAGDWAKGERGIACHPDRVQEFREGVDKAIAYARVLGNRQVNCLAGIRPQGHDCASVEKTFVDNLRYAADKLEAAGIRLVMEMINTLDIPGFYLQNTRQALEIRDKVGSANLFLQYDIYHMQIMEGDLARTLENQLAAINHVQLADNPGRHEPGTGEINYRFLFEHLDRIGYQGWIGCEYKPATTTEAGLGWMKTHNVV

[4] = target: the molecule itself; test: AUC; analytical ultracentrifugation, sedimentation velocity (AUC-SV), of each purified protein alone
purified protein [5] = substrate: O=CC(O)C(=O)O; test: purified protein; assay type: biochemical, Pseudomonas aeruginosa; conditions: TSA made in situ by Gcl from 0-10 mM glyoxylate (concentration varied was glyoxylate, so apparent), 0.2 mM NADH, 20 mM MOPS, 37 °C, no Hyi
purified protein [6] = substrate: O=C(O)C(=O)CO; test: purified protein; assay type: biochemical, Pseudomonas aeruginosa; conditions: 0.2 mM NADH, 20 mM MOPS, pH 7.5, 37 °C, h = 1.6 ± 0.2, some TSA may be present by tautomerization, no Hyi

In the case of “Hyi (PA1501), putative hydroxypyruvate isomerase from Pseudomonas aeruginosa (enzyme)”, the stoichiometry N [1] is reported as 2.

With Cc1cc2nc3c(=O)[nH]c(=O)nc-3n(C[C@H](O)[C@H](O)[C@H](O)COP(=O)(O)OP(=O)(O)OC[C@H]3O[C@@H](n4cnc5c(N)ncnc54)[C@H](O)[C@@H]3O)c2cc1C [flavin adenine dinucleotide] the “GlxR-coupled NADH oxidation with added FAD; yellow protein (445 nm)” value (Gcl [2]) was “FAD supplementation roughly doubled the enzyme activity”.

In the case of O=CC(=O)O [glyoxylate], the “1H-NMR, decrease of hydrated glyoxylate peak” value (Gcl [3]) is reported as “In the presence of Gcl, this hydrated glyoxylate peak slowly diminished in intensity”.

With O=C(O)C(=O)CO [hydroxypyruvate] the “1H-NMR, disappearance of hydroxypyruvate peaks” value (Hyi) was “In the presence of Hyi, both hydroxypyruvate peaks had lessened in intensity”.

B1: GlxR (PA1500), tartronate semialdehyde (TSA) reductase from Pseudomonas aeruginosa (enzyme, P. aeruginosa, UniProt Q9I3L2 1-296, looked up)
chain: MAKIGFIGTGIMGKPMAQNLQKAGHSLFLSTHHDAAPADLLEAGAIALANPKEVAQEAEFIIVMVPDTPQVEDVLFRKDGIAEGAGPNKVVIDMSSISPTATKGFAEKIKATGAQYLDAPVSGGEVGAKAATLSIMVGGCPNTFERALPLFQAMGKNITRVGGNGDGQTAKVANQIIVALNIQAVAEALLFAARNGADPAKVREALMGGFASSRILEVHGERMVKGTFDPGFRISLHQKDLNLALAGARELNLNLPNTANAQQVFSTCAAIGGSNWDHSALIKGLEHMANFSIRDE
notes: GlxR, tartronate semialdehyde reductase, ORF PA1500 of P. aeruginosa strain PAO1; the ORF was tagged and over-expressed; The methods state TEV cleavage of the His6 tag 'For Gcl' but then speak of 'each of the over-expressed proteins'; whether the tag of GlxR was removed is not clear; For crystallisation the elution and dialysis buffers differed (PBS based); also called apo-GlxR; GlxRα; source: E. …
For B1, the “stoichiometry N” value [4] was 4, the Km (purified protein [5]) was 800 µM and the kcat (purified protein [5]) was 34.7 s⁻¹. The K0.5 (purified protein [6]) was 16.7 mM and the kcat (purified protein [6]) was 33.5 s⁻¹.
